Test results taken from US20060141546A1, “Bacterial test method by glycated label binding” (priority 2002, published 2006).

What was measured:
[1] = tested on: gram negative and positive bacteria; experiment: Bacteria assay by binding of intestinal ALP, all strains (Example 1); settings: for ALP binding to bacterial strains tested: FIG. 8, Table 1
Procedure: (§1) Bacterial cells ([…] to 10^8 cells/mL) were washed twice with water after centrifugation to separate the cells into a packed pellet from supernatant liquid. The washed cells in pellet form were suspended in 40 μL water and 10 μL of aqueous bovine intestinal alkaline phosphatase (ALP) was added (2 μg or […]). The mixture was left at room temperature for 30 minutes and then centrifuged, after which the bacterial pellets were washed with water 4-5 times (50 μL). All the washing supernatants were combined. A blank without cells was diluted in the same way. The final pellets were suspended in 50 μl water and both supernatants and cell suspensions were assayed for detection of ALP binding using 2.5 μl of 0.005 M para-nitrophenol phosphate (PNPP) in Tris or EPPS buffer at pH 7.5. The hydrolysis of the substrate results in yellow (PNPP) or blue-green (BCIP) color that is directly proportional to the amount of ALP bound to the bacteria. Alkaline phosphatase (ALP) activity was tested using common substrates such as BCIP (bromo-chloro-indolyl-phosphate) forming a blue/green color in Tris buffer, pH 7.5. After 10 minutes at room temperature the samples were read in a plate reader (Biotek Powerwave Absorbance Reader) at a wavelength of 405 nm. The parallel set of bacteria was run without addition of ALP as controls.
(§2) The bacteria used to illustrate the invention represent the extremes of gram positive (S. facaelis) and gram negative (E. coli) bacteria. […] The nature of the difference in the cell walls is greatest between the gram negative and positive forms of bacteria.

[2] = tested on: Staphylococcus aureus (Sf) strains # 3 and #6; experiment: Bacteria assay by binding of intestinal ALP (Example 1, FIG. 8); settings: gram positive, strains # 3 and #6, FIG. 8
Procedure: as §1

[3] = tested on: Staphylococcus aureus & saprophyicus; experiment: ALP binding compared to Sf (Table 1)
Procedure: as §1, §2

[4] = tested on: Coagulase negative staphylococcus sp.; experiment: ALP binding compared to Sf (Table 1)
Procedure: as §1, §2

[5] = tested on: Streptococcus viridans; experiment: ALP binding compared to Sf (Table 1)
Procedure: as §1, §2

[6] = tested on: Yeasts including Candida albicans; experiment: ALP binding compared to Sf (Table 1)
Procedure: as §1, §2

[7] = tested on: Lactobacillus; experiment: ALP binding compared to Sf (Table 1)
Procedure: as §1, §2

[8] = tested on: Group B streptococcus; experiment: ALP binding compared to Sf (Table 1)
Procedure: as §1, §2

[9] = tested on: Enterococcus sp.; experiment: ALP binding compared to Sf (Table 1)
Procedure: as §1, §2

[10] = tested on: bacteria; experiment: Effect of divalent cations on ALP binding to bacteria (Example 7, Table 5, FIG. 12)
Procedure: Bacterial cells (1 to 4.5×10^7 cells/mL) were washed twice with water after centrifugation to separate cells into a packed pellet from the supernatant liquid. The washed cells in pellet form were suspended in 20 μL of EPPS buffer (50 mM at pH 8.0) and 30 μL of water. […]
The mixture of glycated protein and bacterial cells was left at 25° C. for 15 minutes. The mixture was then centrifuged at 30,000 rpm for 30 minutes after which the bacterial cells formed a pellet at the bottom of the tube and were washed with water 4-5 times (50 μL). Centrifugation allows separation of glycoprotein bound to the bacteria cells from unbound glycated protein(s).
After washing, the bacterial pellets were suspended in 50 μL of borate buffer (25 mM at pH 9.0). A 5 μL aliquot of the suspension was assayed for detection of ALP binding by adding 5 μL of para-nitrophenol phosphate (PNPP, 100 mM), 50 μL sodium borate buffer (25 mM at pH 9.0) and 140 μL of water. […] The color was read at 405 nm using an ELISA plate reader between 15-30 min; the absorbance is directly proportional to the amount of ALP bound to the bacteria cell.

[11] = tested on: Escherichia Coli (E. Coli); experiment: Bacteria assay by binding of intestinal ALP (Example 1, FIG. 8, Table 1)
Procedure: as §1

[12] = tested on: Morganella morganii; experiment: ALP binding compared to E. coli (Table 1)
Procedure: as §1, §2

[13] = tested on: Pseudomonas aeruginosa; experiment: ALP binding compared to E. coli (Table 1)
Procedure: as §1, §2

[14] = tested on: Proteus mirabilis; experiment: ALP binding compared to E. coli (Table 1)
Procedure: as §1, §2

[15] = tested on: Citrobacter koseri; experiment: ALP binding compared to E. coli (Table 1)
Procedure: as §1, §2

[16] = tested on: Klebsiella oxytoca; experiment: ALP binding compared to E. coli (Table 1)
Procedure: as §1, §2

[17] = tested on: Serratia marcescens; experiment: ALP binding compared to E. coli (Table 1)
Procedure: as §1, §2

[18] = tested on: Citrobacter freundii; experiment: ALP binding compared to E. coli (Table 1)
Procedure: as §1, §2

[19] = tested on: Klebsiella pneumoniae; experiment: ALP binding compared to E. coli (Table 1)
Procedure: as §1, §2

[20] = tested on: Diphtheroids (gnb); experiment: ALP binding compared to E. coli (Table 1)
Procedure: as §1, §2

[21] = tested on: E. coli; experiment: Membrane (Loprodyne) separation of bacteria bound ALP (Example 6, Table 4); format: binding
Procedure: Bacteria bound to alkaline phosphatase (ALP) can be separated using a membrane (low protein binding Nylon 66 Loprodyne) on backed microtiter plates (Nunc Nalge International).
The loprodyne-membrane-backed plates were treated with 1 or 2% detergent (Tween 20 or TritonX305) in water or buffers (TBS: Tris, 25 mM, pH 7.6 containing 150 mM NaCl or KCO3: 0.1M, pH 9.6) overnight at room temperature. Blocking solutions were vacuum filtered. […] The combined solution was incubated for 15 min at 37° C. on a shaker and then added to the loprodyne-membrane-backed plate.
The solution was vacuum filtered leaving bacteria adhered on the membrane and then washed twice with 2% Tween20 in water. To the washed membrane, 200 μl of H2O with 50 μl Glycine (0.05M, pH 10.4) and containing 1 mM PNPP were added and the color formed due to the bacteria bound ALP read at 405 nm.
The separation of E. Coli with bound ALP from unbound ALP is shown by a size exclusion membrane in Example 6 and by centrifugation in Examples 1-5. The size of E. Coli is 1×1×2 μm and any membrane, filter or device trapping particles of this size would be acceptable. These include microfluidic devices, filters, column chromatography and chromatography strips. The mass of E. Coli is 1.6×10^−12 gm/cell and any membrane, filter or device trapping a mass of this size would be also acceptable.

B1: ALP: bovine intestinal alkaline phosphatase, glycoprotein enzyme that binds bacteria and serves as label (protein, UniProt P19111 20-506, looked up)
Intestinal-type alkaline …: LVPVEEEDPAFWNRQAAQALDVAKKLQPIQTAAKNVILFLGDGMGVPTVTATRILKGQMNGKLGPETPLAMDQFPYVALSKTYNVDRQVPDSAGTATAYLCGVKGNYRTIGVSAAARYNQCKTTRGNEVTSVMNRAKKAGKSVGVVTTTRVQHASPAGAYAHTVNRNWYSDADLPADAQMNGCQDIAAQLVNNMDIDVILGGGRKYMFPVGTPDPEYPDDASVNGVRKRKQNLVQAWQAKHQGAQYVWNRTALLQAADDSSVTHLMGLFEPADMKYNVQQDHTKDPTLQEMTEVALRVVSRNPRGFYLFVEGGRIDHGHHDDKAYMALTEAGMFDNAIAKANELTSELDTLILVTADHSHVFSFGGYTLRGTSIFGLAPSKALDSKSYTSILYGNGPGYALGGGSRPDVNDSTSEDPSYQQQAAVPQASETHGGEDVAVFARGPQAHLVHGVEEETFVAHIMAFAGCVEPYTDCNLPAPTTATSIPD
For B1, the “ALP binding to bacterial strains tested” value [1] was “binding occurred to all other gram negative and positive bacteria”, the “ALP binding to bacterial strains tested” value ([1]; listed as intestinal ALP) was “binding to all bacterial strains tested” and the “amount of ALP bound or activity generated versus amount of bacteria cells” value ([1]; FIG. 9) was “directly proportional to the amount of bacteria cells present”. For the same molecule, the “difference of ALP binding between strains relative to S. facaelis or E. coli” value ([1]; changes of strain among gram negative and positive bacteria) was at most 12%, the “ALP binding to bacteria (ALP activity of suspended cells after ALP treatment and washings)” value [2] was “found to bind the ALP” and the “ALP binding relative to sf.” value [3] was 100%. For the same molecule, the “ALP binding relative to sf.” value [4] was 88%, the “ALP binding relative to sf.” value [5] was 102% and the “ALP binding relative to sf.” value [6] was 93%. The “ALP binding relative to sf.” value [7] was 100%, the “ALP binding relative to sf.” value [8] was 96% and the “ALP binding relative to sf.” value [9] was 100%. The “O.D. at 405 nm, With ALP” value ([10]; No. cation) was 0.30 O.D, the “bacteria concentration at which ALP binding could be monitored” value ([10]; different strains of bacteria, 1 mM Zn^2+, FIG. 12) was 10^5 and the “ALP binding relative to E. coli” value ([11]; Escherichia coli) was 100%. The “ALP binding to bacteria (ALP activity of suspended cells after ALP treatment and washings)” value ([11]; gram negative, strains # 9 and 14, FIG. 8) was “found to bind the ALP”, the “ALP binding relative to E. coli” value [12] was 95% and the “ALP binding relative to E. coli” value [13] was 99%. The “ALP binding relative to E. coli” value [14] was 104%, the “ALP binding relative to E. coli” value [15] was 93% and the “ALP binding relative to E. coli” value [16] was 111%. For the same molecule, the “ALP binding relative to E. coli” value [17] was 101%, the “ALP binding relative to E. coli” value [18] was 89% and the “ALP binding relative to E. coli” value [19] was 105%. For the same molecule, the “ALP binding relative to E. coli” value [20] was 91%, the “Bacteria Binding to ALP (O.D. at 405 nm)” value ([21]; No Bacteria, ALP concentration 1.0 mU) was 0.04 O.D and the “Bacteria Binding to ALP (O.D. at 405 nm)” value ([21]; No Bacteria, ALP concentration 2.0 mU) was 0.05 O.D. The “Bacteria Binding to ALP (O.D. at 405 nm)” value ([21]; No Bacteria, ALP concentration 5.0 mU) was 0.16 O.D, the “Bacteria Binding to ALP (O.D. at 405 nm)” value ([21]; Plus Bacteria, ALP concentration 1.0 mU) was 0.13 O.D and the “Bacteria Binding to ALP (O.D. at 405 nm)” value ([21]; Plus Bacteria, ALP concentration 2.0 mU) was 0.30 O.D. The “Bacteria Binding to ALP (O.D. at 405 nm)” value ([21]; Plus Bacteria, ALP concentration 5.0 mU) was 0.83 O.D.
